Results reported in the supplement of paper PMC10724198.

Legend:
Saccharomyces cerevisiae [1] = assay: protein stability index of tFT-peptide fusion in wild type (PSI (0-1 scale)); higher = more stable (slower turnover); conditions: genetic background: wild type
Saccharomyces cerevisiae [2] = assay: protein stability index of tFT-peptide fusion in deletion strain of DAS1 (PSI (0-1 scale)); higher = more stable (slower turnover)
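Throughout, for protein stability index of tFT-peptide fusion in deletion strain of DAS1: PSI is a weighted mean of each variant's read distribution over the sorted stability bins, computed only for variants having over 10 reads in total.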
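Throughout, for protein stability index of tFT-peptide fusion in wild type: PSI derived as read-weighted mean over the 8 sorting bins, only variants exceeding 10 total reads kept, mCherry placed adjacent to the peptide and sfGFP distal.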

Sequence	protein stability index (Saccharomyces cerevisiae [1])	protein stability index (Saccharomyces cerevisiae [2])
PSLAASFWRVVC	0.119	0.679
PSLAASFWRVVD	0.48	0.698
PSLAASFWRVVGC	0.664	0.685
PSLAASFWRVVGY	0.658	0.684
PSLAASFWRVVS	0.15	0.641
PSLAASFWRVVV	0.144	0.687
PSLAASFWVVVG	0.249	0.554
PSLAASWWRVVG	0.179	0.693
PSLAAVFWRVVG	0.146	0.665
PSLAKSFWRVVG	0.375	0.702
PSLAVSFWRVVG	0.137	0.673
PSLGASFWRVVG	0.207	0.696
PSLSASFWRVVG	0.176	0.692
PSVAASFWRVVG	0.142	0.679
PTSCGYKFRTNN	0.219	0.677
PVKRNHLIKLLN	0.129	0.608
PWKRNHLIKLLN	0.0786	0.606
QKILRQKMNHQN	0.152	0.678
QTSCGYKFRTNN	0.206	0.673
RFIQPLPVQFLN	0.0529	0.54

Sequence	protein stability index (Saccharomyces cerevisiae [1])	protein stability index (Saccharomyces cerevisiae [2])
RLCQPLPVQFLN	0.0327	0.612
RLIQGLPVQFLN	0.0788	0.651
RLIQMLPVQFLN	0.0223	0.626
RLIQPCPVQFLN	0.0722	0.612
RLIQPDPVQFLN	0.216	0.565
RLIQPLKVQFLN	0.054	0.805
RLIQPLPIQFLN	0.0384	0.593
RLIQPLPKQFLN	0.103	0.559
RLIQPLPMQFLN	0.0399	0.636
RLIQPLPVQFEN	0.627	0.603
RLIQPLPVQFHN	0.24	0.616
RLIQPLPVQFLA	0.139	0.589
RLIQPLPVQFLF	0.247	0.779
RLIQPLPVQFLL	0.2	0.586
RLIQPLPVQFTN	0.377	0.723
RLIQPLPVQFYN	0.0309	0.783
RLIQPLPVQILN	0.309	0.774
RLIQPLPVQSLN	0.457	0.612
RLIQPLPVTFLN	0.0559	0.7
RLIQPLYVQFLN	0.0572	0.629

Sequence	protein stability index (Saccharomyces cerevisiae [1])	protein stability index (Saccharomyces cerevisiae [2])
RLIQPYPVQFLN	0.0613	0.578
SKHKKGQKQKIN	0.153	0.625
STSCGYKFRTNN	0.237	0.669
VNGAVGGWRLVG	0.141	0.68
VRGAVGGSRLVG	0.642	0.669
VRGAVGGWILVG	0.25	0.638
VRGAVGGWKLVG	0.203	0.679
VRGAVGGWRLGG	0.69	0.628
VRGAVGGWRLSG	0.403	0.67
VRGAVGGWRLVGI	0.664	0.679
VRGAVGGWRLVL	0.572	0.68
VRGAVGLWRLVG	0.164	0.675
VRGAVVGWRLVG	0.141	0.66
VRGAYGGWRLVG	0.114	0.664
VTSCGYKFRTNN	0.214	0.674
WDKRNHLIKLLN	0.113	0.602
WRWRVGLWRGAS	0.186	0.764
WVVYLSCVACIN	0.0879	0.0589
